From patent publication EP4703474A1, “ANTI-LRRC15 ANTIBODY” (priority 2023, dated 2024)
Positions count from the first letter of the chain named.

B1: H02L01-PBD (conjugate)
heavy: EVQLVESGGGLVQPGGSLRLSCAASGFTFRDYYMAWVRQAPGKGLEWVSSIGFDESRTYYADSVKGRFTISRDDSKNTLYLQMNSLRAEDTAVYYCARHGVSYYSGDNWFAYWGQGTLVTVSSASTKGPSVFPLAPSSKSTSGGTAALGCLVKDYFPEPVTVSWNSGALTSGVHTFPAVLQSSGLYSLSSVVTVPSSSLGTQTYICNVNHKPSNTKVDKKVEPKSCDKTHTCPPCPAPEAAGGPSVFLFPPKPKDTLMISRTPEVTCVVVDVSHEDPEVKFNWYVDGVEVHNAKTKPREEQYNSTYRVVSVLTVLHQDWLNGKEYKCKVSNKALAAPIEKTISKAKGQPREPQVYTLPPSREEMTKNQVSLTCLVKGFYPSDIAVEWESNGQPENNYKTTPPVLDSDGSFFLYSKLTVDKSRWQQGNVFSCSVMHEALHNHYTQKSLSLSPGK
light: DIQMTQSPSSLSASVGDRVTITCKSSQGLLYSGDQKNYLAWYQQKPGKAPKLLIYWASTRQSGVPSRFSGSGSGTDFTLTISSLQPEDFATYYCQQYYDPPYTFGQGTKVEIKRTVAAPSVFIFPPSDEQLKSGTASVVCLLNNFYPREAKVQWKVDNALQSGNSQESVTEQDSKDSTYSLSSTLTLSKADYEKHKVYACEVTHQGLSSPVTKSFNRGEC
B2: H02L01-V1-PBD (conjugate)
heavy: B1 heavy with Y103K
light: B1 light

Experiments:
[1] = tested on: Triple-negative breast carcinoma cell line HCC1806; experiment: In vivo antitumor effect, HCC1806 subcutaneous transplant model; details: 0.4 mg/kg, tail vein, on Day 7, female SCID mice
Method: (§1) The antitumor effects of the antibody-drug conjugates were evaluated by using animal models in which cells of a human tumor cell line had been transplanted into immunodeficient mice, or cells of a mouse tumor cell line had been transplanted into immunocompetent mice. 4 to 6 Week-old SCID mice (CB17/Icr-Prkdc[scid]/CrlCrlj, Jackson Laboratory Japan, Inc.), NSG mice (NOD.Cg-Prkdcscid Il2rgtm1Wjl/SzJ, Jackson Laboratory Japan, Inc.), or B6J mice (C57BL/6J, Jackson Laboratory Japan, Inc.) were habituated for 3 days or more under SPF conditions before experimental use. The mice were fed with sterilized solid feed and given sterilized tap water. The major and minor diameters of the transplanted tumors were measured twice a week with an electronic digital caliper (Mitutoyo Corporation), and the estimated tumor volume was calculated using the following formula. Estimated tumor volume (mm^3) = 1/2 × major diameter (mm) × [minor diameter (mm)]^2 All antibody-drug conjugates were diluted with ABS and administered into the tail vein at doses shown in each Example. In addition, ABS (vehicle) or control hIgG-PBD prepared in Reference Example 4 was administered as the control group, in a similar manner. 5 to 6 Mice were used per group in the experiment. To analyze the LRRC15 expression in mouse tumor models, immunohistochemical staining of LRRC15 was performed. […]

[2] = tested on: LRRC15-positive human glioblastoma cell line U118MG; experiment: In vivo antitumor effect, U118MG subcutaneous transplant model; details: 0.4 mg/kg, tail vein, on Day 17, female SCID mice
Method: as §1, with “experiment.” for “experiment. To analyze the LRRC15 expression in mouse tumor models, immunohistochemical staining of LRRC15 was performed.”

[3] = tested on: LRRC15-negative human lung carcinoma cell line HCC827; experiment: In vivo antitumor effect, HCC827 subcutaneous transplant model; details: 0.4 mg/kg, tail vein, on Day 10, female SCID mice, huM25-MMAE at 0.4 mg/kg or 3.6 mg/kg
Method: The antitumor effects of the antibody-drug conjugates were evaluated by using animal models in which cells of the human tumor cell line had been transplanted into immunodeficient mice. 4 to 6 Week-old SCID mice (CB17/Icr-Prkdc[scid]/CrlCrlj, Jackson Laboratory Japan, Inc.) were habituated for 3 days or more under SPF conditions before experimental use. The mice were fed with sterilized solid feed (FR-2, Funabashi Farms Co., Ltd.) and given sterilized tap water (prepared by adding a solution of 5 to 15 ppm sodium hypochlorite). The major and minor diameters of the transplanted tumors were measured twice a week with an electronic digital caliper ([…] Corporation), and the estimated tumor volume was calculated using the following formula. Estimated tumor volume (mm^3) = 1/2 × major diameter (mm) × [minor diameter (mm)]^2 All antibody-drug conjugates were diluted with ABS and administered into the tail vein at doses shown in each Example. In addition, ABS (vehicle) or control hIgG-PBD prepared in Reference Example 4 was administered as the control group, in a similar manner. 5 to 6 Mice were used per group in the experiment. […]

Molecule	antitumor effect (estimated tumor volume) [1]	antitumor effect (estimated tumor volume) [2]	antitumor effect (estimated tumor volume) [3]
B1	antitumor activity higher than that of the vehicle	antitumor activity higher than that of the vehicle and the control hIgG-PBD	antitumor activity higher than that of the vehicle, the control hIgG-PBD, and huM25-MMAE
B2	antitumor activity higher than that of the vehicle	antitumor activity higher than that of the vehicle and the control hIgG-PBD	antitumor activity higher than that of the vehicle, the control hIgG-PBD, and huM25-MMAE
